# Assay results as given in patent US20210263001A1, “IMMOBILIZED ENZYMES AND MICROSOMES ON MAGNETIC SCAFFOLDS” (ZYMtronix Catalytic Systems, Inc., priority 2018, published 2021).
# T1: UGT1A6 (Homo sapiens, UniProt P19224)
# T1 construct: purchased Corning 456416
# T1 sequence (P19224 27-532): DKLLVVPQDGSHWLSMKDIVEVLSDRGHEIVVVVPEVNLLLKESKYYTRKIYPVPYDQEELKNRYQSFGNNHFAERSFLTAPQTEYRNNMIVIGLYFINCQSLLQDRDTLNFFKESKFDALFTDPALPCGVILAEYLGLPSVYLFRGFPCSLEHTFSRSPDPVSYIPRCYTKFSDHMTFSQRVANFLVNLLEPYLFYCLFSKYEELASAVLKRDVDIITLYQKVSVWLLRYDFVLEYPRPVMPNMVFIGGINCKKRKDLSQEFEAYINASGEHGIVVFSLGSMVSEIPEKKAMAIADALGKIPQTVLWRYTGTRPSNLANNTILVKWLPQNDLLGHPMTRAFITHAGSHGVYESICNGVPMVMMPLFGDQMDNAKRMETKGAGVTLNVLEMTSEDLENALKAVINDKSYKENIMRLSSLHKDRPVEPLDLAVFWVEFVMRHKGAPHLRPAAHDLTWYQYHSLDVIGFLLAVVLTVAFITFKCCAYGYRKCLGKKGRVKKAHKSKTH
# B1: free UGT: Non-immobilized Corning Supersomes Human UGT1A6 enzyme (protein, UniProt P19224 27-532, looked up)
# UDP-glucuronosyltransferase …: T1 sequence (P19224 27-532)
# modifications: Supersomes microsomal preparation
# notes: Non-immobilized Corning Supersomes Human UGT1A6 enzyme
# Target: T1, UGT1A6
# Assay: Activity of UGT1A6 immobilized on magnetite powder, BioVision fluorometric UGT activity assay (Example 10)
# Assay type: biochemical
# Conditions: 2 hours, 37° C., 500 μl reaction
# Protocol: The UGT1A6 stock (5 mg/mL) was rapidly thawed in a […] and diluted in cold 50 mM Tris pH 7.0 to a final concentration of 25 μg/ml. 500 μl of UGT1A6 solution was added to 5 mg of magnetite powder and incubated for 1 hour at 4° C. with shaking. The immobilization yield was quantified by the Bradford method (Bradford reagent: Quick Start™ Bradford 1× Dye Reagent #5000205 from BioRad) by comparing it to UGT1A6 enzyme standards.
# A fluorometric assay (BioVision UGT Activity Assay/Ligand Screening Kit, Cat #K692) was used to measure the activity of the free and immobilized UGT1A6. The assay utilizes a highly fluorescent UGT substrate and measures UGT activity by tracking the drop in fluorescence emission as the substrate is converted into a non-fluorescent glucuronide. UGT specific activity is calculated by comparing the fluorescence loss versus a control reaction performed in the absence of the required cofactor UDPGA. Duplicate reactions were performed in 0.5 dram glass vials (VWR® Vials, Borosilicate Glass, with Phenolic Screw Cap) with 500 μl reaction volumes at 37° C. with shaking for 2 hours. UGT1A6 reactions contained BioVision UGT Assay buffer with Alamethicin, BioVision UGT subtrate and the UDPGA cofactor. […] The product was detected by fluorescence at Ex/Em=415/502 nm and quantitated by comparing the drop in fluorescence to a standard curve of UGT substrate fluorescence.
molecule,measurement,value
B1,BioVision UGT Activity Assay substrate consumed (average),0.58 ± 0.39 nmol
